This is an account of results in US20250179186A1 (REGENTS OF THE UNIVERSITY OF MINNESOTA, published 2025).

The target in experiment [1] is T1, human B7-H3 expressed by Mile Sven 1 cells stably transfected to express human B7-H3 (MS1-B7-H3) (human, UniProt Q5ZPR3 29-534).
T1 construct: whole, on cells; In the FACS sorts it was used as detergent solubilized, non-specifically biotinylated MS1-B7-H3 cell lysate; also called CD276; MS1-B7-H3 cells
T1 sequence (looked up): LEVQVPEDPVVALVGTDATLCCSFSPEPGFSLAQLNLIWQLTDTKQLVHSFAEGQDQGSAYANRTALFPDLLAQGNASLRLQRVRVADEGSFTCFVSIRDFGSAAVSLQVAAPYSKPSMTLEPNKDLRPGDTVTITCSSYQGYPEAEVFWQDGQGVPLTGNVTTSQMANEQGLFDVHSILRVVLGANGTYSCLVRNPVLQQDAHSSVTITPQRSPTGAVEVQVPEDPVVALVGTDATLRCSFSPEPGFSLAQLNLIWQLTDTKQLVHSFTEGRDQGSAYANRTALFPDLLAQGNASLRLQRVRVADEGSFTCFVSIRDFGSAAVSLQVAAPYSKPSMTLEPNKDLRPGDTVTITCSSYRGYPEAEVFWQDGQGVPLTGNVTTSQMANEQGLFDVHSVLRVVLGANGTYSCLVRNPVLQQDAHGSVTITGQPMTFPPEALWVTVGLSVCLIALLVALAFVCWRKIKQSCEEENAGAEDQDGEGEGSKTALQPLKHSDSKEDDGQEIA
The experiment is described as follows: flow cytometry titration of purified His6-tagged fusion on MS1-B7-H3 cells, anti-His6 FITC, 1:1 model. (In general: In flow cytometry, cells or beads pass a laser one at a time.)

Experiment [2] concerns the target T1, human B7-H3 expressed by Mile Sven 1 …. Kind of experiment: flow cytometry titration of purified His6-tagged Gp2 on MS1-B7-H3 cells, anti-His6 FITC, 1:1 model.

B1: Gp21.4.4-L15-SrtA (designed binder)
chain: KFWATVQHVYSDFGFEAPVYAATLDEALQLAEVQYANSIFTVTRVRPGSGGGSGGGKGGGGTQAKPQIPKDKSKVAGYIEIPDADIKEPVYPGPATPEQLNRGVSFAEENESLDDQNISIAGHTFIDRPNYQFTNLKAAKKGSMVYFKVGNETRKYKMTSIRDVKPTDVGVLDEQKGKDKQLTLITCDDYNEKTGVWEKRKIFVATEVKHHHHHH
notes: range 60-206; also called Gp2-L15-SrtA fusion; Gp2 fusion construct
In general, Kd refers to the free concentration of one partner at which half of the binding sites on the other are occupied at equilibrium, for simple one-to-one binding. A lower Kd goes with higher affinity. B1 returned a Kd in experiment [1] of 1.8 nM.

B2: Gp2 1.4.3 (designed binder)
chain: KFWATVQHVYSDFGFEVPVYAATLDEALQLAEVRYANSIFMVTRVRPHHHHHH
notes: Purified from E. coli (pET-24b, NheI/BamHI cloning)
Take B2: the Kd in experiment [2] came to 3.4 nM.

B3: Gp2 1.4.4 (designed binder)
chain: KFWATVQHVYSDFGFEAPVYAATLDEALQLAEVQYANSIFTVTRVRPHHHHHH
notes: as for B2
In experiment [2], B3 had a dissociation constant Kd of 1 nM.
